The target of series [1] is T1, L-selectin-IgG1 Fc fusion (LS-Rg) (Homo sapiens) (UniProt P14151).
T1 sequence: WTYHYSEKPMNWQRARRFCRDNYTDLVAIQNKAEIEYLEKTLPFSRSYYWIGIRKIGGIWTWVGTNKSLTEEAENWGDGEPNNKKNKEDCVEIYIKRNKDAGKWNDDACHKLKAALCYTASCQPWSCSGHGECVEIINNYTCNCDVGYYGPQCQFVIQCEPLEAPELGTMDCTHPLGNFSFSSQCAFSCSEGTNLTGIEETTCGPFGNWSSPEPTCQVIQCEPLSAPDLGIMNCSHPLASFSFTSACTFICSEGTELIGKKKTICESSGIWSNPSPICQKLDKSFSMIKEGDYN
Put plainly: SPR. Particulars: 2'-F pyrimidines, 2'-OH purines, SHMCK buffer with Ca and Mg.

Series [2] has as its target T1, L-selectin-IgG1 Fc fusion (LS-Rg) (Homo sapiens). The series can be described thus: filter. Particulars: 2'-F pyrimidines, 2'-OH purines.

Among the data in patent US5861254 are Kd values, retold here.

“UCGGGCGGAAUUCAGGNNNNNNNNNNNNNNNNNNNNNNNNNNNNNNCCGCAUCGUCCUCCC [Flow Cell SELEX Rnd 4 pool]” displayed a Kd in series [1] (ka 7.5e4, kd 1.8e-3) of 24 nM. “UCGGGCGGAAUUCAGGNNNNNNNNNNNNNNNNNNNNNNNNNNNNNNCCGCAUCGUCCUCCC [Flow Cell SELEX Rnd 2 pool]”: the dissociation constant (Kd) in series [1] (ka 1.7e4, kd 1.8e-3) turned out to be 110 nM.

In the case of “UCGGGCGGAAUUCAGGNNNNNNNNNNNNNNNNNNNNNNNNNNNNNNCCGCAUCGUCCUCCC [Flow Cell SELEX Rnd 3 pool]”, the equilibrium dissociation constant (Kd) in series [1] (ka 4.9e4, kd 1.9e-3) was 39 nM; in series [2] (nitrocellulose filter binding, pool plateau below 20% bound in final mixtures) it was 0.16 nM. “UCGGGCGGAAUUCAGGNNNNNNNNNNNNNNNNNNNNNNNNNNNNNNCCGCAUCGUCCUCCC [Flow Cell SELEX Rnd 5 pool]”: the Kd in series [1] (ka 3.7e5, kd 1.5e-3) is 4.1 nM; in series [2] (only slightly improved over round 3 (160 pM), plateau below 20% bound), less than 1 nM.
